Experimental data published in patent US20080138335A1 (Kyowa Kirin, published 2008).

B1: 4D11-G3[I422V] (antibody, V domains shown)
VH: QLQLQESGPGLLKPSETLSLTCTVSGGSISSPGYYGGWIRQPPGKGLEWIGSIYKSGSTYHNPSLKSRVTISVDTSKNQFSLKLSSVTAADTAVYYCTRPVVRYFGWFDPWGQGTLVTVSS
VL: AIQLTQSPSSLSASVGDRVTITCRASQGISSALAWYQQKPGKAPKLLIYDASNLESGVPSRFSGSGSGTDFTLTISSLQPEDFATYYCQQFNSYPTFGQGTKVEIK
notes: One-amino acid variant of 4D11-G3; also called IgG3[I422V]; N5KG3-1422V; not shown: human IgG3 heavy chain constant region, from vector N5KG3
B2: 4D11-G[3313] (antibody, V domains shown)
VH: QLQLQESGPGLLKPSETLSLTCTVSGGSISSPGYYGGWIRQPPGKGLEWIGSIYKSGSTYHNPSLKSRVTISVDTSKNQFSLKLSSVTAADTAVYYCTRPVVRYFGWFDPWGQGTLVTVSS
VL: AIQLTQSPSSLSASVGDRVTITCRASQGISSALAWYQQKPGKAPKLLIYDASNLESGVPSRFSGSGSGTDFTLTISSLQPEDFATYYCQQFNSYPTFGQGTKVEIK
notes: also called IgG[3/3/1/3]; N5KG3313; not shown: human IgG3 heavy chain constant region, CH1 and hinge domains (EU 118-237), from vector N5KG3; human IgG1 heavy chain constant region, CH2 domain (EU 238-340), from vector N5KG1 by way of N5KG3311; human IgG3 heavy chain constant region, CH3 domain (EU 341-446), from vector N5KG3
B3: 4D11-G3[M397V] (antibody, V domains shown)
VH: QLQLQESGPGLLKPSETLSLTCTVSGGSISSPGYYGGWIRQPPGKGLEWIGSIYKSGSTYHNPSLKSRVTISVDTSKNQFSLKLSSVTAADTAVYYCTRPVVRYFGWFDPWGQGTLVTVSS
VL: AIQLTQSPSSLSASVGDRVTITCRASQGISSALAWYQQKPGKAPKLLIYDASNLESGVPSRFSGSGSGTDFTLTISSLQPEDFATYYCQQFNSYPTFGQGTKVEIK
notes: One-amino acid variant of 4D11-G3, made on N5KG3-4D11; also called N5KG3-M397V; 4D11-G[M397V]; not shown: human IgG3 heavy chain constant region, from vector N5KG3-4D11
B4: 4D11-G[3331] (antibody, V domains shown)
VH: QLQLQESGPGLLKPSETLSLTCTVSGGSISSPGYYGGWIRQPPGKGLEWIGSIYKSGSTYHNPSLKSRVTISVDTSKNQFSLKLSSVTAADTAVYYCTRPVVRYFGWFDPWGQGTLVTVSS
VL: AIQLTQSPSSLSASVGDRVTITCRASQGISSALAWYQQKPGKAPKLLIYDASNLESGVPSRFSGSGSGTDFTLTISSLQPEDFATYYCQQFNSYPTFGQGTKVEIK
notes: also called IgG[3/3/3/1]; N5KG3331; not shown: human IgG3 heavy chain constant region, CH1, hinge and CH2 domains (EU 118-340), from vector N5KG3; human IgG1 heavy chain constant region, CH3 domain (EU 341-446), from vector N5KG1
B5: 4D11-G[3311] (antibody, V domains shown)
VH: QLQLQESGPGLLKPSETLSLTCTVSGGSISSPGYYGGWIRQPPGKGLEWIGSIYKSGSTYHNPSLKSRVTISVDTSKNQFSLKLSSVTAADTAVYYCTRPVVRYFGWFDPWGQGTLVTVSS
VL: AIQLTQSPSSLSASVGDRVTITCRASQGISSALAWYQQKPGKAPKLLIYDASNLESGVPSRFSGSGSGTDFTLTISSLQPEDFATYYCQQFNSYPTFGQGTKVEIK
notes: also called IgG[3/3/1/1]; N5KG3311; not shown: human IgG3 heavy chain constant region, CH1 and hinge domains (EU 118-237), from vector N5KG3; human IgG1 heavy chain constant region, CH2 and CH3 domains (EU 238-446), from vector N5KG1
B6: 4D11-G3[M358L] (antibody, V domains shown)
VH: QLQLQESGPGLLKPSETLSLTCTVSGGSISSPGYYGGWIRQPPGKGLEWIGSIYKSGSTYHNPSLKSRVTISVDTSKNQFSLKLSSVTAADTAVYYCTRPVVRYFGWFDPWGQGTLVTVSS
VL: AIQLTQSPSSLSASVGDRVTITCRASQGISSALAWYQQKPGKAPKLLIYDASNLESGVPSRFSGSGSGTDFTLTISSLQPEDFATYYCQQFNSYPTFGQGTKVEIK
notes: One-amino acid variant of 4D11-G3; also called IgG3[M358L]; N5KG3-M358L; not shown: human IgG3 heavy chain constant region, from vector N5KG3
B7: 4D11-G3[N392K] (antibody, V domains shown)
VH: QLQLQESGPGLLKPSETLSLTCTVSGGSISSPGYYGGWIRQPPGKGLEWIGSIYKSGSTYHNPSLKSRVTISVDTSKNQFSLKLSSVTAADTAVYYCTRPVVRYFGWFDPWGQGTLVTVSS
VL: AIQLTQSPSSLSASVGDRVTITCRASQGISSALAWYQQKPGKAPKLLIYDASNLESGVPSRFSGSGSGTDFTLTISSLQPEDFATYYCQQFNSYPTFGQGTKVEIK
notes: One-amino acid variant of 4D11-G3; also called IgG3[N392K]; N5KG3-N392K; not shown: human IgG3 heavy chain constant region, from vector N5KG3
B8: 341-G [1/1/2/2] (antibody)
heavy: QVQLQQSGPGLVKPSQTLSLTCAISGDSVSSNSATWNWIRQSPSRDLEWLGRTYYRSKWYRDYVGSVKSRIIINPDTSNNQFSLQLNSVTPEDTAIYYCTRAQWLGGDYPYYYSMDVWGQGTTVTVSS
VL: EIVLTQSPATLSLSPGERATLSCRASQSVSSYLAWYQQKPGQAPRLLIYDASNRATGIPARFSGSGSGTDFTLTISSLEPEDFAVYYCQQRSNTFGPGTKVDIK
notes: also called IgG[1/1/2/2]; N5KG1122; not shown: human IgG1 heavy chain constant region, CH1 and hinge domains (EU 118-237), from vector N5KG1-Val Lark; human IgG2 heavy chain constant region, CH2 and CH3 domains (EU 238-446), from vector N5KG2
B9: 341-G [2/2/1/1] (antibody)
heavy: QVQLQQSGPGLVKPSQTLSLTCAISGDSVSSNSATWNWIRQSPSRDLEWLGRTYYRSKWYRDYVGSVKSRIIINPDTSNNQFSLQLNSVTPEDTAIYYCTRAQWLGGDYPYYYSMDVWGQGTTVTVSS
VL: EIVLTQSPATLSLSPGERATLSCRASQSVSSYLAWYQQKPGQAPRLLIYDASNRATGIPARFSGSGSGTDFTLTISSLEPEDFAVYYCQQRSNTFGPGTKVDIK
notes: also called IgG[2/2/1/1]; N5KG2211; not shown: human IgG2 heavy chain constant region, CH1 and hinge domains (EU 118-237), from vector N5KG2; human IgG1 heavy chain constant region, CH2 and CH3 domains (EU 238-446), from vector N5KG1

target: T1, CD40 expressed on Ramos [ATCC] cells (UniProt P25942 21-277, limits assumed); test: flow cytometry (FACS) on Ramos cells expressing CD40, R-PE anti-human antibody
T1 construct: whole, on cells; Target of all flow cytometry and CD95 assays; endogenous CD40 on the Ramos cell line
T1 sequence (P25942 21-277 limits assumed): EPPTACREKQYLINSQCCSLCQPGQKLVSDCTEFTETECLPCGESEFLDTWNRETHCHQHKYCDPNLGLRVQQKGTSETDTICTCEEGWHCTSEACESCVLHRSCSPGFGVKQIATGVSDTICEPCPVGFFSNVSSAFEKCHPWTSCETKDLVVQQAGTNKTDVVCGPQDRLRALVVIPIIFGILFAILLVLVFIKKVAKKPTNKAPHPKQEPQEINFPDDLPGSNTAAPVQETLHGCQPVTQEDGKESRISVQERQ

Binding result, binds:
B1, B2, B3, B4, B5, B6, B7, B8, B9
